The results in this text go back to publication PMC8204342, “Dual arginine recognition of LRRK2 phosphorylated Rab GTPases” (Biophysical Journal, 2021).

First the molecules themselves.
B1: RILPL2-GFP WT, full length [human] / HA-Rab8a in MLi-2 treated cells (LRRK2 inhibited) [Homo sapiens (Human).] (parent)
chain 1: MEEPPVREEEEEEGEEDEERDEVGPEGALGKSPFQLTAEDVYDISYLLGRELMALGSDPRVTQLQFKVVRVLEMLEALVNEGSLALEELKMERDHLRKEVEGLRRQSPPASGEVNLGPNKMVVDLTDPNRPRFTLQELRDVLQERNKLKSQLLVVQEELQCYKSGLIPPREGPGGRREKDAVVTSAKNAGRNKEEKTIIKKLFFFRSGKQT
chain 2: MAKTYDYLFKLLLIGDSGVGKTCVLFRFSEDAFNSTFISTIGIDFKIRTIELDGKRIKLQIWDTAGQERFRTITTAYYRGAMGIMLVYDITNEKSFDNIRNWIRNIEEHASADVEKMILGNKCDVNDKRQVSKERGEKLALDYGIKFMETSAKANINVENAFFTLARDIKAKMDKKLEGNSPQGSNQGVKITPDQQKRSSFFRC

Variants of B1 are the subject of this experiment. The experiment can be described thus: co-immunoprecipitation (GFP binder Sepharose) with LI-COR immunoblot quantification. As to conditions: with HA-Rab8a in MLi-2 treated cells (LRRK2 inhibited) [Homo sapiens (Human).]; HEK293 cells, Flag-LRRK2[Y1699C] + HA-Rab8a co-expressed; 500 nM MLi-2 for 90 min; parent: 0.11; read off a plot. For orientation: A western blot detects proteins with antibodies after separation by electrophoresis.
On to chain 1 D127N, for which the ratio to parent stood at 0.12.
Consider chain 1 D127A, for which the ratio to parent came out at 0.13.
For the variant chain 1 P128A, the ratio to parent was found to be 0.11.
Consider chain 1 D124N, for which the ratio to parent came out at 0.09.
Take chain 1 D124A: the ratio to parent amounted to 0.06.
For the variant chain 1 T126A, the ratio to parent stood at 0.12.
